Assay [1] has as its target KP-VR2 (human). The experiment in a line: BLI.
Another assay deals with Aflibercept. Description: ELISA.
For assay [2], the target named is KP-VR2 (human). The experiment in a line: ELISA.

B1: Human PlGF-1 (ligand)
chain: LPAVPPQQWALSAGNGSSEVEVVPFQEVWGRSYCRALERLVDVVSEYPSEVEHMFSPSCVSLLRCTGCCGDENLHCVPVETANVTMQLLKIRSGDRPSYVELTFSQHVRCECRPLREKMKPERCGDAVPRR
Regarding B1, in the assay with KP-VR2 (human) [1], the Kd is 0.78 nM. Moreover, the EC50 with Aflibercept was 30.5 nM; in the assay with KP-VR2 (human) [2], 2.39 nM.
